Consider two proteins from publication PMC8405996, “A structurally preserved allosteric site in the MIF superfamily affects enzymatic activity and CD74 activation in D-dopachrome tautomerase” (The Journal of Biological Chemistry, 2021).

This data set deals with the molecule itself. Kind of data set: crystal structure; hanging-drop vapor diffusion at 20 °C; diffraction data at 100 K; molecular replacement; trimer of MIF-2 in the crystal.

Numbering of substitutions follows the chain as printed. Numbers in names are those of the source.

B1: D-dopachrome tautomerase (MIF-2), wild type (enzyme, human, UniProt P30046 1-118, looked up)
chain: MPFLELDTNLPANRVPAGLEKRLCAAAASILGKPADRVNVTVRPGLAMALSGSTEPCAQLSISSIGVVGTAEDNRSHSAHFFEFLTKELALGQDRILIRFFPLESWQIGKIGTVMTFL
notes: human D-dopachrome tautomerase (MIF-2), monomer of 117 amino acids with the catalytic Pro1 at the N terminus (initiating Met removed); Homotrimer; no tag is named; also called wt-MIF-2; DDT; source: E. coli BL21-Gold (DE3), purified (Q-Sepharose, Superdex 75)
In the case of B1, the stoichiometry N (as a rule, a count of units in the complex or per binding partner) is 3.

B2: MIF-2 P1G variant (enzyme, human, UniProt P30046 1-118, looked up)
chain: B1 chain with P2G
notes: human D-dopachrome tautomerase (MIF-2) with P1G; the initiating Met was found kept in this variant (not cleaved in E. coli), so the chain begins Met-Gly1; also called P1G MIF-2; source: E. coli BL21-Gold (DE3), purified (Q-Sepharose, Superdex 75)
For the protein B2, the binding result was “binds”.
